Experiments:
[1] = Serum insulin pharmacokinetics after subcutaneous injection; format: in vivo, human; settings: 0.15 units/kg s.c., 14 healthy volunteers
healthy volunteers = assay: Eight-hour euglycemic glucose clamp; format: in vivo, human; settings: mean ± SD; 0.15 units/kg s.c.; 14 healthy volunteers; 8-h euglycemic clamp

insulin glulisine
onset (early t50%) of exposure [1]: 21 min
tmax [1]: 80 min
onset of action (early T50% GIRmax) (healthy volunteers): 47 ± 19 min
time to 50% glucose infused (healthy volunteers): 183 ± 34 min
